Measured values: US20250277199, “NOVEL CRISPR-CAS NUCLEASES FROM METAGENOMES” (Brain Biotech AG, published 2025)

Biological target: T1, BMC13 (uncultured bacterium (metagenome))
T1 chain: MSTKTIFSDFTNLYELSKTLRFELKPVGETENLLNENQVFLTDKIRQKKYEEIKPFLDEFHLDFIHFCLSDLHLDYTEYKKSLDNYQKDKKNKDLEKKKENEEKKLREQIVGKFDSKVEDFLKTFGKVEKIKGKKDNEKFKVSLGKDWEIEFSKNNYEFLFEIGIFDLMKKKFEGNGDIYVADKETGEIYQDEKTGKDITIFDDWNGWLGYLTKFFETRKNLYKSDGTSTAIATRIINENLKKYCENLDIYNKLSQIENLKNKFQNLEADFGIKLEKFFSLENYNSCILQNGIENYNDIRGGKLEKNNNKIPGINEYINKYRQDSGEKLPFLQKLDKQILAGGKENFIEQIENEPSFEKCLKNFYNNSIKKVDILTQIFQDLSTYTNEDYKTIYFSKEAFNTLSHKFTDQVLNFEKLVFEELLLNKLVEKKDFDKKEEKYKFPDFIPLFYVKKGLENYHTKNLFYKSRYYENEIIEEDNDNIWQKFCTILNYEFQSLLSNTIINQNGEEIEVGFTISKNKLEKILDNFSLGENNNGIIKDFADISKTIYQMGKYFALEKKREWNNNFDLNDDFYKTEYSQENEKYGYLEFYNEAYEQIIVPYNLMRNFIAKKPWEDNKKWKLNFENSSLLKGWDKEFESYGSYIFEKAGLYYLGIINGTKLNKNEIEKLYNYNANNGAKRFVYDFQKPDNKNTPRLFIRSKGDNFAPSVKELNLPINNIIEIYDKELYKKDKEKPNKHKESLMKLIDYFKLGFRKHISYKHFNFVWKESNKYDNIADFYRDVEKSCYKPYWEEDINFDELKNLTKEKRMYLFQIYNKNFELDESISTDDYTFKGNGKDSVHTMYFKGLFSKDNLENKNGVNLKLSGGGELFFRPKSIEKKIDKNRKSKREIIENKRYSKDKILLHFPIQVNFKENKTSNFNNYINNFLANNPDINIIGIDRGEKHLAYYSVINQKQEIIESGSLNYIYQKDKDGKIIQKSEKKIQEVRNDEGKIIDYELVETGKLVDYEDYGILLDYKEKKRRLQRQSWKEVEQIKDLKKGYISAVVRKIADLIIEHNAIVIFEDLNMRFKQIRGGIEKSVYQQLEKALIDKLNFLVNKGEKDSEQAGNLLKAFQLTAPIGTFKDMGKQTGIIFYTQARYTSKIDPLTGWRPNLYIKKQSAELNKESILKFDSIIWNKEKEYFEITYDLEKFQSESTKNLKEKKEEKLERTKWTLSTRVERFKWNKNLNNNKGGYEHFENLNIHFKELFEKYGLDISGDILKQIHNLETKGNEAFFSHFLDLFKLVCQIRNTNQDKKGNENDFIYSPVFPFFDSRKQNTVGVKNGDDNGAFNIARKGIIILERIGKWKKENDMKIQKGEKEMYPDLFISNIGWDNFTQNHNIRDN
Assay: cell_activity; PAM not stated; E. coli depletion, 30 C
Experimental: Overnight grown pre-cultures were diluted into fresh 60 ml LB-Kanamycin (25 μg/ml) (Example 4) or LB-Kanamycin (25μg/ml)/Nourseothricin (50 μg/ml) medium (Example 5) to obtain an optical density at 600 nm (OD600) of 0.06. The inoculated medium was incubated at 30° C. on a horizontal shaker at 250 rpm until the culture reached an optical density at OD600 of 0.2. For induced BMC (NN) nuclease expression, 600 μl 20% L-(+)-arabinose (w/v) was added to the culture at a final concentration of 0.2% (v/v). The cultivation was continued until the culture reached an optical density at OD600 of 0.5. Subsequently 50 ml culture was transferred into one 50 ml conical tube and harvested by centrifugation at 4° C. for 5 min and 4000×g. Pelleted cells were resuspended in 50 ml ultrapure water (ice-cold) and centrifuged at 4° C. for 5 min and 4000×g.
This washing procedure was repeated twice. Washed cells were resuspended in 25 ml 10% (w/w) glycerin and re-centrifuged at 4° C. for 5 min and 4000×g. The pelleted cells were resuspended in 5 ml 10% (w/w) glycerin. After the final centrifugation step at 4° C. for 5 min and 4000×g, the cells were resuspended in 125 μl 10% (w/w) glycerin. Aliquots of 25 μl competent cells were stored at −80° C. until use. For the transformation procedure, aliquots of competent cells were thawed on ice and 50-100 ng plasmid DNA (CRISPR/gRNA-Ec) was added. Prepared cells were electroporated at 1800 V, 25 μF and 200 Ω in 1 mm gap size electroporation cuvettes, using the Bio-Rad Gene Pulser Xcell Electroporation System. Subsequently, 975 μL of NEB® 10-beta/Stable Outgrowth Medium was added immediately after the pulse to the transformed cells. Regeneration was done at 30° C. on a horizontal shaker at 250 rpm. Finally, 25-100 μl of the cell suspension was plated onto selective M9-Glucose agar plates supplemented with Kanamycin (25 μg/ml)/Ampicillin (100 μg/ml) (Example 4) or Kanamycin (25 μg/ml)/Ampicillin (100 μg/ml)/Nourseothrin (50 μg/ml) (Example 5). Growth of transformed E. coli cells on selective agar plates was screened for 48 h at 30° C.
As described above, each of the BMC01, BMC02, BMC03, BMC04, BMC05, BMC07, BMC08, BMC09, BMC10, BMC11, BMC12, BMC13, BMC14, or BMC15 nucleases was co-transformed into E. coli with a gRNA targeting the E. coli malQ gene to visualize a) the activity and b) the DNA targeting efficiency of the BMC nucleases.

B1: malQ gRNA (BMC stem-loop + 24 nt spacer) ; malQ protospacer (ssRNA ; dsDNA)
RNA: GAUUUCUACUAUUGUAGAUGUGGCGGUACGUUGAUGCAUCGCG
DNA 1: GTGGCGGTACGTTGATGCATCGCG
DNA 2: CGCGATGCATCAACGTACCGCCAC
- activity: > 99.9 % colony reduction
